Biological target: CDK5 (full-length), His-tag cleaved (human, UniProt Q00535 1-292)
Experiment: SEC

B1: cyclin B1 (amino acids 152-433, C167S, C238S, C350S), co-expressed with CDK5 from a single 438-B vector (domain or fragment)
chain: AVNDVDAEDGADPNLSSEYVKDIYAYLRQLEEEQAVRPKYLLGREVTGNMRAILIDWLVQVQMKFRLLQETMYMTVSIIDRFMQNNSVPKKMLQLVGVTAMFIASKYEEMYPPEIGDFAFVTDNTYTKHQIRQMEMKILRALNFGLGRPLPLHFLRRASKIGEVDVEQHTLAKYLMELTMLDYDMVHFPPSQIAAGAFSLALKILDNGEWTPTLQHYLSYTEESLLPVMQHLAKNVVMVNQGLTKHMTVKNKYATSKHAKISTLPQLNSALVQDLAKAVAKV
binding result: binds
